According to patent US20040063627A1 (BROWN UNIVERSITY RESEARCH FOUNDATION, published 2004):

Target: T1, QE-Bgn (bacterially expressed recombinant human biglycan core) (human, UniProt P21810 38-368)
T1 construct: Produced in E. coli M15[pREP4]; contains no chondroitin sulfate side chains; tested as lysate of induced bacteria on a blot; also called QE-BIG; bacterially-expressed biglycan
T1 sequence: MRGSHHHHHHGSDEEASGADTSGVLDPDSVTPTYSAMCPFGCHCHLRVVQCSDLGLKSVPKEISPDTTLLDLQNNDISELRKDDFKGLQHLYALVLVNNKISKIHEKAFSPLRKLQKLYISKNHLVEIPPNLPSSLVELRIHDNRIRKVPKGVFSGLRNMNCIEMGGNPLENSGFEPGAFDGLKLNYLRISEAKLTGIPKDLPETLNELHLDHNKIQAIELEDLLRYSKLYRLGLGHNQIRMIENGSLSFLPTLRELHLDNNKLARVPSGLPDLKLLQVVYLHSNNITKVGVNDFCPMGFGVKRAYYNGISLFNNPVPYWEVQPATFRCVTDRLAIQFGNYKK
Assay: dystroglycan blot overlay on lysate of induced bacteria (FIG. 7)

- binding result: no binding
B1: α-dystroglycan (dystroglycan as named in the overlay assays; fragment not named at the place) (receptor, human, UniProt Q14118 345-653, looked up)
chain: PAIAPPTETMAPPVRDPVPGKPTVTIRTRGAIIQTPTLGPIQPTRVSEAGTTVPGQIRPTMTIPGYVEPTAVATPPTTTTKKPRVSTPKPATPSTDSTTTTTRRPTKKPRTPRPVPRVTTKVSITRLETASPPTRIRTTTSGVPRGGEPNQRPELKNHIDRVDAWVGTYFEVKIPSDTFYDHEDTTTDKLKLTLKLREQQLVGEKSWVQFNSNSQLMYGLPDSSHVGKHEYFMHATDKGGLSAVDAFEIHVHRRPQGDRAPARFKAKFVGDPALVLNDIHKKIALVKKLAFAFGDRNCSTITLQNITRG
notes: also called alpha-dystroglycan
